Measurements published in article PMC13108886, “Constitutively active RAS prolongs Cdc42 signalling, while MAPK signalling is attenuated during fission yeast mating” (PLOS Genetics, 2026).

T1: GTP-loaded Ras1.G17V (1-172) (Schizosaccharomyces pombe (fission …, UniProt P08647 1-172, G17V))
T1 construct: stopped with 20.5 mM MgCl2) just before the pull-down; Cloned in the vector pLEICS1; also called Ras1.G17V^GTP; source: E. coli BL21 Rosetta, purified (Ni Sepharose 6 Fast Flow), loaded with GTP
T1 sequence (looked up): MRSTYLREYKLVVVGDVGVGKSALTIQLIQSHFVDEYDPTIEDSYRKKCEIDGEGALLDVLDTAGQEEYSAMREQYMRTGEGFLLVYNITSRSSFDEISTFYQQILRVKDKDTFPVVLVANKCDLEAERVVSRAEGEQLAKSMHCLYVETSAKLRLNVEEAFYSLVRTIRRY


What was measured:
[1] = molecular target: T1, GTP-loaded Ras1.G17V (1-172); test: pull-down; GST-Byr2 (65-180) or GST-Scd1 (760-872) on glutathione sepharose 4B beads, GTP-loaded Ras1.G17V (1-172) added; buffer A (20 mM Tris-Cl pH 7.5, 100 mM NaCl, 5 mM MgCl2, 1 mM beta-mercaptoethanol), 4 C, 30 min; bound fraction on SDS-PAGE, InstantBlue stain; settings: both partners purified
[2] = molecular target: T1, GTP-loaded Ras1.G17V (1-172); test: pull-down; competition: GST-Byr2 (65-180) on glutathione beads, GTP-loaded Ras1.G17V (1-172) with or without the Scd1 (760-872) fragment; buffer A, 4 C, 30 min; Ras1.G17V band on the stained gel quantified with Fiji; settings: both partners purified

binding result [1]	binding result [2]	Binder
binds		GST-Scd1 (760-872) (domain or fragment, UniProt P40995 760-872, looked up, Cloned in the vector pLEICS4; also called GST-Scd1-PB1; Scd1-PB1; source: E. coli BL21 Rosetta, purified (glutathione sepharose 4B), kept on the beads; not shown: GST, N-terminal, kept) SSSTSTSLSVRNTTNVKIRLRLHEVSLVLVVAHDITFDELLAKVEHKIKLCGILKQAVPFRVRLKYVDEDGDFITITSDEDVLMAFETCTFELMDPVHNKGMDTVSLHVVVYF
	binds	Scd1 (760-872) fragment (domain or fragment, UniProt P40995 760-872, looked up, legend and methods say the fragment freed of GST; also called Scd1-PB1; source: E. coli BL21 Rosetta; not shown: GST, N-terminal, cleaved) SSSTSTSLSVRNTTNVKIRLRLHEVSLVLVVAHDITFDELLAKVEHKIKLCGILKQAVPFRVRLKYVDEDGDFITITSDEDVLMAFETCTFELMDPVHNKGMDTVSLHVVVYF
binds		GST-Byr2 (65-180) (domain or fragment, UniProt P28829 65-180, looked up, Cloned in the vector pLEICS4; also called GST-Byr2-RBD; Byr2-RBD; source: E. coli BL21 Rosetta, purified (glutathione sepharose 4B), kept on the beads; not shown: GST, N-terminal, kept) REFPRPCILRFIACNGQTRAVQSRGDYQKTLAIALKKFSLEDASKFIVCVSQSSRIKLITEEEFKQICFNSSSPERDRLIIVPKEKPCPSFEDLRRSWEIELAQPAALSSQSSLSP
